Our source for the Kd, koff and kon values is patent CN116440263A (SHANGHAI JUNSHI BIOSCIENCES CO LTD; JUNMENG BIOSCIENCES CO …, dated 2023).

The assay deals with T1, His标签的重组人CTLA-4抗原蛋白 (human, UniProt P16410 36-161, limits assumed).
T1 construct: Made in-house (君盟自制); also called 重组人CTLA-4蛋白; 人CTLA-4蛋白; not shown: His tag
T1 sequence (looked up): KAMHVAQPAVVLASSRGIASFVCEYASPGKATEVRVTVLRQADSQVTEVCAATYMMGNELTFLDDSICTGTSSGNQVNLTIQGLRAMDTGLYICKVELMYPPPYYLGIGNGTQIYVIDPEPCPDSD
Nature of the assay: SPR (Biacore T200): antibody captured on goat anti-human Fc CM5 chip, His-tagged CTLA-4 0.75-24 nM as analyte, kinetic fit. Background: Surface plasmon resonance follows binding to a sensor surface in real time, without labels.

B1: huJS007-47 (antibody, V domains shown)
VH: QVQLQESGPGLVKPSQTLSLTCTVSAYSITSGYYWNWIRQHPGKGLEWIGYIGYDGSNNYNPSLKSRVTISRDTSKNQFSLKLSSVTAADTAVYYCARDYYSGYFDSWGQGTTLTVSS
VL: DIQMTQSPSSLSASVGDRVTITCRASQNVGTYVAWYQQKPGKVPKPLIYSTSYRYSGVPSRFSGSGSGTDFTLTISSLQPEDVATYFCHQYDTYPLTFGAGTKLELKR
For the molecule B1, binding was put at a Kd of 0.206 nM, the koff was found to be 0.000169 s⁻¹ and the kon is 818000 M⁻¹ s⁻¹.

As usually defined, the Kd is the concentration at which binding is half-saturated. A lower Kd goes with tighter binding. One may read the koff as the rate constant with which the complex falls apart. Low values mean a long-lived complex, high ones a short-lived complex. As a reminder, the kon is the rate constant with which the complex forms. High values mean faster complex formation, low ones slower complex formation.
